# Source: the supplement of paper PMC9112550, “Optimization of the antimicrobial peptide Bac7 by deep mutational scanning” (BMC Biology, 2022)
# System: Escherichia coli TOP10
# Assay: shrunken log2 fold change of peptide-encoding DNA abundance (4.5 h post-induction vs induction); higher = less antimicrobial activity (less host growth inhibition)
# Conditions: time post-induction: 4.5 h; library: site-saturation at positions 5, 18, 19, 20
# 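Also: peptides expressed intracellularly from a pBAD plasmid library in pooled LB shake-flask culture, induced with 0.3% L-arabinose, DNA abundance read by NGS, three biological replicates, DESeq2 with apeglm shrinkage.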
row,Sequence,shrunken log2 fold change
1,RRIRFRPPRLPRPRPRPCWNPRP,0.151
2,RRIRCRPPRLPRPRPRPEKDPRP,-0.0681
3,RRIRIRPPRLPRPRPRPECTPRP,-0.0501
4,RRIRKRPPRLPRPRPRPAYSPRP,-0.0338
5,RRIRIRPPRLPRPRPRPPTCPRP,-0.278
6,RRIRTRPPRLPRPRPRPRRPPRP,0.493
7,RRIRCRPPRLPRPRPRPMWWPRP,0.396
8,RRIRERPPRLPRPRPRPAHPPRP,-0.0581
9,RRIRFRPPRLPRPRPRPIRKPRP,-0.0472
10,RRIRGRPPRLPRPRPRPANMPRP,-0.139
11,RRIRGRPPRLPRPRPRPCTMPRP,-0.063
12,RRIRSRPPRLPRPRPRPYTSPRP,-0.14
13,RRIRWRPPRLPRPRPRPCHTPRP,-0.53
14,RRIRLRPPRLPRPRPRPTMGPRP,0.147
15,RRIRLRPPRLPRPRPRPNEWPRP,-0.227
16,RRIRFRPPRLPRPRPRPGYAPRP,-0.0137
17,RRIRMRPPRLPRPRPRPTVRPRP,0.216
18,RRIRDRPPRLPRPRPRPRACPRP,0.389
19,RRIRHRPPRLPRPRPRPTWIPRP,-0.206
20,RRIRMRPPRLPRPRPRPQTPPRP,2.18
21,RRIRQRPPRLPRPRPRPEQIPRP,-0.0247
22,RRIRWRPPRLPRPRPRPPQIPRP,0.117
23,RRIRHRPPRLPRPRPRPNSGPRP,-0.194
24,RRIRIRPPRLPRPRPRPKGNPRP,-0.459
25,RRIRVRPPRLPRPRPRPFMNPRP,-0.836

row,Sequence,shrunken log2 fold change
1,RRIRYRPPRLPRPRPRPAQQPRP,0.0788
2,RRIRIRPPRLPRPRPRPRNCPRP,-0.271
3,RRIRVRPPRLPRPRPRPGDTPRP,-0.0412
4,RRIRIRPPRLPRPRPRPWGQPRP,-0.00987
5,RRIRSRPPRLPRPRPRPNNKPRP,-0.559
6,RRIRMRPPRLPRPRPRPCTVPRP,-0.0102
7,RRIRYRPPRLPRPRPRPQKMPRP,-0.295
8,RRIRPRPPRLPRPRPRPMGWPRP,0.217
9,RRIRDRPPRLPRPRPRPNEVPRP,0.0348
10,RRIRARPPRLPRPRPRPPFPPRP,0.625
11,RRIRMRPPRLPRPRPRPHYAPRP,-0.128
12,RRIRFRPPRLPRPRPRPGCGPRP,0.748
13,RRIRWRPPRLPRPRPRPYMYPRP,-0.848
14,RRIRSRPPRLPRPRPRPWDNPRP,0.0157
15,RRIRDRPPRLPRPRPRPNFYPRP,-0.109
16,RRIRDRPPRLPRPRPRPEPDPRP,1.33
17,RRIRSRPPRLPRPRPRPFLRPRP,-0.0915
18,RRIRDRPPRLPRPRPRPYGYPRP,-0.575
19,RRIRFRPPRLPRPRPRPKGSPRP,0.089
20,RRIRYRPPRLPRPRPRPHHWPRP,-0.892
21,RRIRWRPPRLPRPRPRPDQEPRP,-0.00154
22,RRIRRRPPRLPRPRPRPRCAPRP,0.469
23,RRIRQRPPRLPRPRPRPASWPRP,0.00959
24,RRIRKRPPRLPRPRPRPLAKPRP,0.614
25,RRIRLRPPRLPRPRPRPHSFPRP,0.0434

row,Sequence,shrunken log2 fold change
1,RRIRVRPPRLPRPRPRPCSAPRP,0.0399
2,RRIRQRPPRLPRPRPRPQHMPRP,0.0284
3,RRIRFRPPRLPRPRPRPVLNPRP,-0.282
4,RRIRERPPRLPRPRPRPHQQPRP,0.119
5,RRIRYRPPRLPRPRPRPKPQPRP,-0.115
6,RRIRHRPPRLPRPRPRPPLLPRP,0.152
7,RRIRCRPPRLPRPRPRPRESPRP,0.155
8,RRIRPRPPRLPRPRPRPPTHPRP,0.317
9,RRIRVRPPRLPRPRPRPEEQPRP,0.0234
10,RRIRARPPRLPRPRPRPYWLPRP,-0.148
11,RRIRRRPPRLPRPRPRPSKDPRP,0.0136
12,RRIRARPPRLPRPRPRPERHPRP,0.58
13,RRIRRRPPRLPRPRPRPRLIPRP,0.874
14,RRIRLRPPRLPRPRPRPMWYPRP,0.0493
15,RRIRCRPPRLPRPRPRPPRRPRP,0.909
16,RRIRWRPPRLPRPRPRPVRRPRP,0.365
17,RRIRVRPPRLPRPRPRPNPKPRP,-0.0645
18,RRIRDRPPRLPRPRPRPHLPPRP,-0.0459
19,RRIRTRPPRLPRPRPRPQFAPRP,0.0816
20,RRIRFRPPRLPRPRPRPWPPPRP,1.11
21,RRIRFRPPRLPRPRPRPPDEPRP,0.684
22,RRIRTRPPRLPRPRPRPMRQPRP,-0.01
23,RRIRYRPPRLPRPRPRPHTGPRP,-1.06
24,RRIRVRPPRLPRPRPRPYCGPRP,-0.502
25,RRIRERPPRLPRPRPRPQTNPRP,-0.554

row,Sequence,shrunken log2 fold change
1,RRIRLRPPRLPRPRPRPRNMPRP,-0.0899
2,RRIRDRPPRLPRPRPRPIMPPRP,-0.0491
3,RRIRPRPPRLPRPRPRPYVTPRP,-0.239
4,RRIRFRPPRLPRPRPRPFSYPRP,-0.777
5,RRIRTRPPRLPRPRPRPPVIPRP,0.213
6,RRIRWRPPRLPRPRPRPAWRPRP,0.642
7,RRIRHRPPRLPRPRPRPPYIPRP,-0.175
8,RRIRPRPPRLPRPRPRPAPKPRP,0.702
9,RRIRVRPPRLPRPRPRPEKFPRP,-0.208
10,RRIRFRPPRLPRPRPRPHTYPRP,-0.554
11,RRIRHRPPRLPRPRPRPTKPPRP,0.0121
12,RRIRGRPPRLPRPRPRPIDAPRP,0.674
13,RRIRWRPPRLPRPRPRPCDHPRP,-0.00122
14,RRIRNRPPRLPRPRPRPMYYPRP,0.0222
15,RRIRLRPPRLPRPRPRPDEEPRP,0.138
16,RRIRTRPPRLPRPRPRPSIGPRP,-0.272
17,RRIRNRPPRLPRPRPRPWDYPRP,-0.0686
18,RRIRWRPPRLPRPRPRPWSEPRP,-0.206
19,RRIRFRPPRLPRPRPRPPPEPRP,1.28
20,RRIRKRPPRLPRPRPRPTESPRP,0.00281
21,RRIRRRPPRLPRPRPRPMPLPRP,2.47
22,RRIRDRPPRLPRPRPRPTANPRP,0.877
23,RRIRTRPPRLPRPRPRPQKFPRP,-0.632
24,RRIRTRPPRLPRPRPRPYWNPRP,-0.343
25,RRIRGRPPRLPRPRPRPEMHPRP,0.242

row,Sequence,shrunken log2 fold change
1,RRIRIRPPRLPRPRPRPWWTPRP,-0.0807
2,RRIRNRPPRLPRPRPRPLKKPRP,-0.0418
3,RRIRPRPPRLPRPRPRPHAWPRP,0.189
4,RRIRLRPPRLPRPRPRPNTCPRP,-0.823
5,RRIRMRPPRLPRPRPRPHHMPRP,-0.321
6,RRIRFRPPRLPRPRPRPRITPRP,-0.657
7,RRIRCRPPRLPRPRPRPPYSPRP,-0.798
8,RRIRKRPPRLPRPRPRPAMKPRP,0.141
9,RRIRHRPPRLPRPRPRPNQDPRP,-0.337
10,RRIRHRPPRLPRPRPRPLMMPRP,-0.124
11,RRIRWRPPRLPRPRPRPVSAPRP,0.316
12,RRIRSRPPRLPRPRPRPYEEPRP,-0.932
13,RRIRMRPPRLPRPRPRPPGTPRP,1.05
14,RRIRERPPRLPRPRPRPLGSPRP,-0.0249
15,RRIRRRPPRLPRPRPRPNKNPRP,0.153
16,RRIRSRPPRLPRPRPRPFQAPRP,0.0408
17,RRIRTRPPRLPRPRPRPFVCPRP,-0.374
18,RRIRRRPPRLPRPRPRPGEFPRP,-0.0272
19,RRIRHRPPRLPRPRPRPKMGPRP,-0.00141
20,RRIRGRPPRLPRPRPRPDGAPRP,1.03
21,RRIRLRPPRLPRPRPRPVFTPRP,-0.135
22,RRIRPRPPRLPRPRPRPNPEPRP,-0.0226
23,RRIRPRPPRLPRPRPRPNMNPRP,-0.584
24,RRIRFRPPRLPRPRPRPRKFPRP,0.171
25,RRIRFRPPRLPRPRPRPIKGPRP,-0.248
